Reference: patent publication US5593882

Legend:
[1] = target: P-Selectin ligand on HL60 cells and human neutrophils (human); assay: flow cytometry, staining of HL60 cells
[2] = target: P-Selectin-IgG REKDV mutant (human) (UniProt P16109); assay: capture ELISA
[3] = target: E-Selectin-IgG chimera (wild type) (human) (UniProt P16581); assay: capture ELISA, mAb coated
[4] = target: P-Selectin-IgG chimera (human) (UniProt P16109); assay: capture ELISA, mAb coated
PE-1 chimera (human) = PE-1 chimera (human) (UniProt P16581); assay: capture ELISA, mAb coated

% cells positive [1] [%] | MFI [1] [MFI] | percent of control P-Selectin-IgG binding [2] [%] | O.D. 450 [3] [O.D. 450] | O.D. 450 [4] [O.D. 450] | O.D. 450 (PE-1 chimera (human)) [O.D. 450] | Substance
97 | 416 |  |  |  |  | P-Selectin-IgG chimera (from UniProt P16109) (Fc fusion)
 |  | 70 | 0 | 1.3 | 1.7 | mAb AK-6 (CLB-thromb/6) (antibody)
 |  | 70 | 0 | 2.8 | 0.1 | mAb AC 1.2 (antibody)
